Experimental data: the supplement of paper PMC12764529
± gives the half width of the 95% confidence interval.

Experiments:
[1] = folding stability dG unfold from chymotrypsin proteolysis; higher = more stable
In short: (§1)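 Unfolding free energy was derived, per protease or combined, by relating Bayesian-fitted K50 values from sequencing counts to a sequence-predicted unfolded-state K50 and a shared folded-state K50. The underlying digests exposed cysteine-free mini-proteins under 80 residues, in a PA-tagged cDNA display construct, to trypsin and chymotrypsin at 11 threefold-diluted concentrations and to a no-protease condition. A filter kept only designs with AlphaFold2 dimer inter-PAE above 15.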

[2] = folding stability dG unfold (combined trypsin and chymotrypsin); higher = more stable
In short: as §1

In the case of “SAGGSAGGSASLSLDQVGTVTFPANGAPALVTRLPDGSVALYFPATGRVLYLDGPNDVTPDSAGGSAGGSAG [r3_96_TrMRF]”, the “folding stability dG unfold” value [1] is reported as 0.97 ± 0.059 kcal/mol and the “folding stability dG unfold” value [2] is reported as 0.552 ± 0.075 kcal/mol.
For “SAGGSAGGSASYSVTISPEERIEPVVDYKTGERRLVERRRVVVTADPKLSPALKAAILAALSSAGGSAGGSA [r18_438_JUSTAS]”, the “folding stability dG unfold” value [1] was 0.144 ± 0.2 kcal/mol and the “folding stability dG unfold” value [2] was -0.237 ± 0.2 kcal/mol.
For “SAGGSAGGSAWRTIEITWPPSNPEEFIDEISKDFGFTVEGEREPNGYHTIDFQLPPGMKIVSAGGSAGGSAG [r3_457_TrROS]”, the “folding stability dG unfold” value [1] was -0.137 ± 0.23 kcal/mol and the “folding stability dG unfold” value [2] was -0.224 ± 0.2 kcal/mol.
For “SAGGSAGGSDDAVTFTFTSAPTRLLYLDNPKTFPGSATVTLPAGNPDEFRIERFAPDTAELKPSAGGSAGGS [r20_150_TrMRF]”, the “folding stability dG unfold” value [1] was -0.427 ± 0.62 kcal/mol and the “folding stability dG unfold” value [2] was under -1 kcal/mol.
In the case of “SAGGSAGGSEEIYIKVTVEHPNGEKRTHEIERIRDKDGLPIKQIAKELAQEPNVRDVDVEIVKSAGGSAGGS [r12_199_TrROS]”, the “folding stability dG unfold” value [1] is reported as -0.316 ± 0.072 kcal/mol and the “folding stability dG unfold” value [2] is reported as -0.56 ± 0.15 kcal/mol.
With “SAGGSAGGSEEVVRTETSTSTTPDGKRVKTTTTTLPTPTTVTTTTVYAPGGEVLETTTTTTAASAGGSAGGS [r12_727_JUSTAS]” the “folding stability dG unfold” value [1] was -0.123 ± 0.2 kcal/mol and the “folding stability dG unfold” value [2] was under -1 kcal/mol.
With “SAGGSAGGSELPPGPYLVTIPADPEPVVAPATFAPDGTVRVRVPEPGEEITIPRDQAEIFPVESAGGSAGGS [r12_782_JUSTAS]” the “folding stability dG unfold” value [1] was 0.944 ± 0.058 kcal/mol and the “folding stability dG unfold” value [2] was -0.0148 ± 0.28 kcal/mol.
In the case of “SAGGSAGGSGEYVVVLLREELPDEERYLRRPVPLDAALEALKEGKLVRSSEGREWRFAEYRPESAGGSAGGS [r12_432_TrMRF]”, the “folding stability dG unfold” value [1] is reported as -0.0188 ± 0.33 kcal/mol and the “folding stability dG unfold” value [2] is reported as -0.218 ± 0.28 kcal/mol.
For “SAGGSAGGSGMERVEAVREALVPGDPDAVPAPITYDPQTGKLTYSVSDPRVAAALAADPLVSLSAGGSAGGS [r12_623_JUSTAS]”, the “folding stability dG unfold” value [1] was 0.333 ± 0.11 kcal/mol and the “folding stability dG unfold” value [2] was -0.309 ± 0.19 kcal/mol.
For “SAGGSAGGSGMNVKTIKIYSPEGGETTVPVTGTTVTIGGETVTVTSDVVVPVPPTIKSIEVVGSAGGSAGGS [r12_779_JUSTAS]”, the “folding stability dG unfold” value [1] was 0.769 ± 0.02 kcal/mol and the “folding stability dG unfold” value [2] was 0.277 ± 0.082 kcal/mol.
With “SAGGSAGGSGPALANIPPDAKVTVTPLPDDSYLVDIYYPNGPVEYLDVPVGDKWVKFEVEPEKSAGGSAGGS [r20_50_TrMRF]” the “folding stability dG unfold” value [1] was -0.749 ± 0.24 kcal/mol and the “folding stability dG unfold” value [2] was under -1 kcal/mol.
In the case of “SAGGSAGGSKKIVLVLKVKKEKAKEKVEKAKKELEKALPKDYKIKSIEVKYDPETDKVIIVADSAGGSAGGS [r12_308_TrMRF]”, the “folding stability dG unfold” value [1] is reported as 0.376 ± 0.49 kcal/mol and the “folding stability dG unfold” value [2] is reported as -0.0532 ± 0.28 kcal/mol.
With “SAGGSAGGSKKWIPIDSPSEIEDLLEKAPPGGKLKIYNNNGQTEKVPPNEIERTPNHWWIEVDSAGGSAGGS [r12_907_TrROS]” the “folding stability dG unfold” value [1] was 0.314 ± 0.17 kcal/mol and the “folding stability dG unfold” value [2] was -0.463 ± 0.45 kcal/mol.
With “SAGGSAGGSKWKISVHPPNGNSWKIDPGDTIKELVDQMSKENGWPYHIHVSKEEAEKLGLKPVSAGGSAGGS [r12_379_TrROS]” the “folding stability dG unfold” value [1] was 0.356 ± 0.13 kcal/mol and the “folding stability dG unfold” value [2] was -0.0115 ± 0.16 kcal/mol.
With “SAGGSAGGSLRPDEEVVAILPNGEKVPFKVESVEVSPDGSVKANLTLPGGKSLGPANLVFKPESAGGSAGGS [r12_735_TrMRF]” the “folding stability dG unfold” value [1] was -0.00357 ± 0.078 kcal/mol and the “folding stability dG unfold” value [2] was -0.629 ± 0.22 kcal/mol.
With “SAGGSAGGSMKEGTFNSEEEVEELKKKYPNVEVYEDPETNTIHVKIKEESEKEYEEENIKKLKSAGGSAGGS [r20_191_JUSTAS]” the “folding stability dG unfold” value [1] was -0.897 ± 0.6 kcal/mol and the “folding stability dG unfold” value [2] was under -1 kcal/mol.
In the case of “SAGGSAGGSMLRVEVTLENGEKIEVEIEVPPGEELTLDEILAELKEKYPDLKVTEIKIEFLEPSAGGSAGGS [r12_262_TrROS_Hall]”, the “folding stability dG unfold” value [1] is reported as 2.63 ± 0.22 kcal/mol and the “folding stability dG unfold” value [2] is reported as 3.27 ± 0.28 kcal/mol.
In the case of “SAGGSAGGSMTITIKLDNVKEVEVKFNPETNVVEIKVKVDGKEYVIRMEFVDGKIYITEIKPLSAGGSAGGS [r20_60_TrROS_Hall]”, the “folding stability dG unfold” value [1] is reported as 3.68 ± 0.34 kcal/mol and the “folding stability dG unfold” value [2] is reported as 4.06 ± 0.28 kcal/mol.
With “SAGGSAGGSMTIVNPGTPETLAATVKETIKAGKKVKVIYVSPDNPEPVAEAEVEGTAEELEKESAGGSAGGS [r12_241_TrMRF]” the “folding stability dG unfold” value [1] was 0.193 ± 0.11 kcal/mol and the “folding stability dG unfold” value [2] was -0.49 ± 0.29 kcal/mol.
In the case of “SAGGSAGGSMTVDTTYDPSTDRVTLTVTIPAPDGSELVRTVQSTGDPEAAAAAAAAAVAAAAASAGGSAGGS [r20_33_JUSTAS]”, the “folding stability dG unfold” value [1] is reported as -0.252 ± 0.14 kcal/mol and the “folding stability dG unfold” value [2] is reported as under -1 kcal/mol.
For “SAGGSAGGSPAEITREEAVELAYETLPATEPAVFVFADPRLLVVYPDGADPSRNRVVEVPLLDSAGGSAGGS [r12_648_TrMRF]”, the “folding stability dG unfold” value [1] was -0.339 ± 0.17 kcal/mol and the “folding stability dG unfold” value [2] was -0.741 ± 0.22 kcal/mol.
With “SAGGSAGGSPGVRVKPVGDHYVVEIPLPPSVPLGRAVFEVEGGYAETVAVDPERGIATVRVPLSAGGSAGGS [r12_675_TrMRF]” the “folding stability dG unfold” value [1] was 0.091 ± 0.11 kcal/mol and the “folding stability dG unfold” value [2] was -0.352 ± 0.15 kcal/mol.
In the case of “SAGGSAGGSPKPKRRTIEFPLKVPPGMSPEDVADELKQQPGFEIDEIDEVDPDEGWVKISVELSAGGSAGGS [r12_712_TrROS]”, the “folding stability dG unfold” value [1] is reported as -0.377 ± 0.13 kcal/mol and the “folding stability dG unfold” value [2] is reported as under -1 kcal/mol.
For “SAGGSAGGSPMPILSASADPGPDGTRTLTLRLGDKTVTFTVPASRPALIPAPADSVISLDPAGSAGGSAGGS [r12_373_TrMRF]”, the “folding stability dG unfold” value [1] was -0.467 ± 0.14 kcal/mol and the “folding stability dG unfold” value [2] was -0.64 ± 0.16 kcal/mol.
In the case of “SAGGSAGGSPPENMKIKIYNPNGEEQTIPVEGVKIRFNGDTHEIPPGDSIPIPPGIDAIEIEKSAGGSAGGS [r12_779_TrROS]”, the “folding stability dG unfold” value [1] is reported as 0.512 ± 0.084 kcal/mol and the “folding stability dG unfold” value [2] is reported as 0.0926 ± 0.22 kcal/mol.
For “SAGGSAGGSPPESRPFTTDPGPSGEYTAKLLPPDGSSEEVVLPVSQPRTLNVPKDWSFEVLPPSAGGSAGGS [r12_517_JUSTAS]”, the “folding stability dG unfold” value [1] was 0.157 ± 0.11 kcal/mol and the “folding stability dG unfold” value [2] was -0.338 ± 0.12 kcal/mol.
In the case of “SAGGSAGGSPPPVPLSTLAVEPDPATGGKFTVLLAYPDGSTRELTSEEEAAALPNFDLERRLASAGGSAGGS [r20_192_JUSTAS]”, the “folding stability dG unfold” value [1] is reported as 0.443 ± 0.2 kcal/mol and the “folding stability dG unfold” value [2] is reported as -0.0474 ± 0.21 kcal/mol.
For “SAGGSAGGSQKPTIEKEGGRYYIRNPDNGKSFPINIEREDNEWKFEFGDGEITIPGEFEIQRRSAGGSAGGS [r12_683_TrROS]”, the “folding stability dG unfold” value [1] was -0.308 ± 0.14 kcal/mol and the “folding stability dG unfold” value [2] was under -1 kcal/mol.
With “SAGGSAGGSSEVIEKLLELNPDVEVVSVTPTPNGVTVTVATKEGGEETVSSAELEKLGVKIRLSAGGSAGGS [r12_3_JUSTAS]” the “folding stability dG unfold” value [1] was 0.282 ± 0.1 kcal/mol and the “folding stability dG unfold” value [2] was 0.1 ± 0.28 kcal/mol.
With “SAGGSAGGSTADALKDLPPGAKIEVEPHPIPNEDGWVYRQHYIKIEDPNKTVELPVIIPIPLPSAGGSAGGS [r12_892_TrROS]” the “folding stability dG unfold” value [1] was -0.0369 ± 0.39 kcal/mol and the “folding stability dG unfold” value [2] was -0.0244 ± 0.37 kcal/mol.
In the case of “SAGGSAGGTREIELPGMKISVQKDPNQGKKKIEVEFPNGEEFTMDPGKPPDDLPPPFRRALKEISAGGSAGG [r6_749_TrROS]”, the “folding stability dG unfold” value [1] is reported as -0.176 ± 0.31 kcal/mol and the “folding stability dG unfold” value [2] is reported as under -1 kcal/mol.
With “SAGGSAGGWIKLDGKEVYIVIPDGNPEQIAKELKEQFPNGNIKPHPGQNAEEAAKKNKRVIWIPSAGGSAGG [r6_680_TrROS]” the “folding stability dG unfold” value [1] was 0.771 ± 0.16 kcal/mol and the “folding stability dG unfold” value [2] was 0.284 ± 0.37 kcal/mol.
In the case of “SAGGSAGMPRLVEIEVPLPPDAKDPEIKEKIIKTPEGYEYKTIKETSDPSPSSLRKIIMEKKPLKKSAGGSA [r15_852_JUSTAS]”, the “folding stability dG unfold” value [1] is reported as -0.197 ± 0.99 kcal/mol and the “folding stability dG unfold” value [2] is reported as under -1 kcal/mol.
In the case of “SAGGSAGMRMQIQIPNDEIPPEKIEDALQEYGWNPTDVYPPDNGVSVTFEMDPGDMNKLMEAIKKLSAGGSA [r15_161_TrROS]”, the “folding stability dG unfold” value [1] is reported as 0.843 ± 0.29 kcal/mol and the “folding stability dG unfold” value [2] is reported as 0.107 ± 0.35 kcal/mol.
For “SAGGSAGMVVEPREVVIKLKPPNGPETTLEVELVEVEPDSLVLRNGDTPIVLPPDAEDVEILEVTGSAGGSA [r15_510_JUSTAS]”, the “folding stability dG unfold” value [1] was 0.401 ± 0.088 kcal/mol and the “folding stability dG unfold” value [2] was 0.0501 ± 0.22 kcal/mol.
With “SAGGSAGPMPSTVTTLATAPLPDGTLVVTTLERTPDSVTRTTTTYKPADGSPLGTASTTYPAPAALSAGGSA [r15_716_JUSTAS]” the “folding stability dG unfold” value [1] was 0.808 ± 0.15 kcal/mol and the “folding stability dG unfold” value [2] was -0.0279 ± 0.14 kcal/mol.
